Literature values in patent US12194157B2, “Carrier for targeted delivery to a host” (Finncure Oy, priority 2020, dated 2025).

Molecular target: ACE2 (Homo sapiens, UniProt Q9BYF1)
Details: simulation, ref [8]

Chain of ACE2 (Q9BYF1 18-805): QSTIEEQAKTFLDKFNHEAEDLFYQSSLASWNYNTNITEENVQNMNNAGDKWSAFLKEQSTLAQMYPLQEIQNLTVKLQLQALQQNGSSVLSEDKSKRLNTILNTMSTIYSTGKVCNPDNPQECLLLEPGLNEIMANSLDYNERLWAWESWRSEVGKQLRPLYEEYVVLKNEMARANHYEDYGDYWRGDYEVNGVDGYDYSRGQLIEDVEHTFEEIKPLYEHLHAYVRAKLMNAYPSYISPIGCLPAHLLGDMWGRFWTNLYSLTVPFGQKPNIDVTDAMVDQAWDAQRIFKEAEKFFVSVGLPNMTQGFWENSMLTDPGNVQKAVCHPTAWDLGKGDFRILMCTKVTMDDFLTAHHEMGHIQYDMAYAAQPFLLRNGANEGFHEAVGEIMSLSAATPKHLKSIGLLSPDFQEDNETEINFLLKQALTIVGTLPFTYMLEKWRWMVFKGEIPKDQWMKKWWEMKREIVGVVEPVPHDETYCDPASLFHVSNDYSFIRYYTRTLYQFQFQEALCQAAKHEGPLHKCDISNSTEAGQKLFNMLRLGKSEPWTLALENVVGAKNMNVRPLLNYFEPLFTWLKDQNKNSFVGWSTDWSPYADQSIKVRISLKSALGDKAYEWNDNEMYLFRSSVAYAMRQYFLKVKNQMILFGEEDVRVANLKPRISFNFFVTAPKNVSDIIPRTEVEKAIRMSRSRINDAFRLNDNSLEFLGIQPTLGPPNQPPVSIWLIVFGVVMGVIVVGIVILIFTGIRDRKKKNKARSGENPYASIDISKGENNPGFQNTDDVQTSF

| Substance | binding affinity towards the ACE2 receptor relative to YKYRYL |
| --- | --- |
| YKYNYL (Potential alternative synthetic hexapeptide variant) [alternative synthetic hexapeptide variant from simulation] | even stronger binding affinity |
| YKYNYI (Potential alternative synthetic hexapeptide variant) [alternative synthetic hexapeptide variant from simulation] | even stronger binding affinity |
